Legend:
Settings in all cases: both partners purified
[1] = target: T1, tau 299–304 (6-mer peptide from MTBR2, identical to tau 362–367 from MTBR4) (Homo sapiens); experiment: ELISA; competitive ELISA; plates coated with 250 ng/well purified tau 151-391/4R; DC8E8 0.6 μg/ml (3.8 nM), 60 μl mixed with 40 μl of 200 μM peptide, 1 hour at 25°C, then 1 hour at 25°C on the plate
T1 construct: numbers count on: the longest human tau isoform (2N4R); source: synthetic peptide, bought: EZBiolab (>95% purity)
T1 chain: HVPGGG

[2] = target: T2, tau 330–335 (6-mer peptide from MTBR3) (Homo sapiens); experiment: as above
T2 construct: human tau residues 330-335; numbers count on: the longest human tau isoform (2N4R); also called HKPGGG; source: synthetic peptide, bought: EZBiolab (>95% purity)
T2 chain: HKPGGG

[3] = target: T3, tau 268–273 (6-mer peptide from MTBR1) (Homo sapiens); experiment: as above
T3 construct: numbers count on: the longest human tau isoform (2N4R); also called HQPGGG; source: synthetic peptide, bought: EZBiolab (>95% purity)
T3 chain: HQPGGG

[4] = target: T4, mis-disordered tau protein 151-391/4R (human, UniProt P10636-8); experiment: SPR; Biacore 3000, CM5; DC8E8 captured (230 to 250 RU) by coupled polyclonal anti-mouse antibody; twofold serial dilutions of tau proteins injected at 50 μl/min; 25°C, PBS pH 7.4 with 0.005% P20; fitted to a two-phase reaction model
T4 construct: numbers count on: the longest human tau isoform (2N4R); source: purified

[5] = target: T5, human tau protein isoform 2N4R (Homo sapiens, isoform 2N4R (Tau-F, 441 …, UniProt P10636-8)); experiment: as above
T5 construct: human tau, longest isoform 2N4R (four repeats, two N-terminal inserts); also called full-length tau isoform 2N4R; physiological tau

[6] = target: T6, mis-disordered tau 151-391/3R (Homo sapiens, UniProt P10636-5); experiment: as above
T6 construct: numbers count on: the longest human tau isoform (2N4R); also called three-repeat mis-disordered truncated tau protein

[7] = target: T7, human tau protein isoform 2N3R (Homo sapiens, UniProt P10636-5); experiment: as above
T7 construct: human tau, isoform 2N3R (three repeats, two N-terminal inserts); also called three-repeat tau protein isoform 2N3R; full-length three-repeat tau protein
T7 sequence (P10636 other isoform, or with tags, fused parts or gaps): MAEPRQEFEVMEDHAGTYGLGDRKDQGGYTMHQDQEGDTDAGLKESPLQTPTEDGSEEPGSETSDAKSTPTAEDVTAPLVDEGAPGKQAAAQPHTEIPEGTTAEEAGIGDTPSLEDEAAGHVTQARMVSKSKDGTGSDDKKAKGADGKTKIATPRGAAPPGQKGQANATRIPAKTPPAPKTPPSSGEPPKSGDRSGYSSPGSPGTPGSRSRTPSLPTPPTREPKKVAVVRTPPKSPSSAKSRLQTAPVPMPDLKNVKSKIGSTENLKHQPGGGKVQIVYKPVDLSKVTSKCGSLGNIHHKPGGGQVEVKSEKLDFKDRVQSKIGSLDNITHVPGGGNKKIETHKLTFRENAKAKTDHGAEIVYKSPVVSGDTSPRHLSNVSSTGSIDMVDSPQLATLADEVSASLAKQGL

T6 sequence (P10636 other isoform, or with tags, fused parts or gaps): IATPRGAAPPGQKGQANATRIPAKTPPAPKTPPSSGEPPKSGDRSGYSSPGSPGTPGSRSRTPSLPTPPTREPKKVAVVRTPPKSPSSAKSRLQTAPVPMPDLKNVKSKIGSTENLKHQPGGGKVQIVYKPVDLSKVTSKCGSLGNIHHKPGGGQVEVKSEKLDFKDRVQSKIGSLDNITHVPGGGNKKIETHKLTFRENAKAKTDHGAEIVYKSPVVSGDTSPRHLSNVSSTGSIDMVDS
T4 sequence (P10636 468-708): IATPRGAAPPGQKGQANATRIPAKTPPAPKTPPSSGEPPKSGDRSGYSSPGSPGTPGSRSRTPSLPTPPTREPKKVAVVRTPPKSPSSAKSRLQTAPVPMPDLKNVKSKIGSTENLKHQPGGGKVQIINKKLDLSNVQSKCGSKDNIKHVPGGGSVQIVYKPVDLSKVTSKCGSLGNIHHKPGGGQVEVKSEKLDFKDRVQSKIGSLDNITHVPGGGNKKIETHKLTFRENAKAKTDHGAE
T5 sequence (P10636 other isoform, or with tags, fused parts or gaps): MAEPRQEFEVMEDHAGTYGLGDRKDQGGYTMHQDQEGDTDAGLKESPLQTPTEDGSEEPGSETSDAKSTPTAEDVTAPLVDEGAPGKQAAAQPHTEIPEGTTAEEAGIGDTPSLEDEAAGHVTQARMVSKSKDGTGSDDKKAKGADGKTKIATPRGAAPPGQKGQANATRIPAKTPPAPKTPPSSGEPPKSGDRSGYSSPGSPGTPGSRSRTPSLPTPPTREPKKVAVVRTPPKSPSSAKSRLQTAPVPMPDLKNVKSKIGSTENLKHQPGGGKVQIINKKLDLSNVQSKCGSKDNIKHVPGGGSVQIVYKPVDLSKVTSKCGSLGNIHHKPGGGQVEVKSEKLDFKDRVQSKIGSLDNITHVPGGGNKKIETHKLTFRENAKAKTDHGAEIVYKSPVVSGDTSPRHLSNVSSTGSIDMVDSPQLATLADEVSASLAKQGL

B1: monoclonal antibody DC8E8 (antibody, V domains shown)
VH: QVQLQQSGPELVKPGTSVKMPCKASGYIFTDYVISWVKQRTGQGLEWIGEIFPRSGSTYYNEKFKGKATLTADKSSNTAYMQLSSVTSEDSAVYFCARDYYGTSFAMDYWGQGTSVTVSS
VL: DIVMSQSPSSLAVSAGEKVTMSCKSSQSLLNSRTRKNYLAWYQQKPGQSPKLLIYWASTRESGVPDRFTGSGSGTDFTLTISSVQAEDLAVYYCKQSFYLRTFGGGTKLDIK
notes: the Fab of DC8E8 is deposited as PDB 4OZ4 (heavy chain of the Fab); the Fab of DC8E8 is deposited as PDB 4OZ4 (light chain); The crystal structure (4OZ4) is of the papain Fab without antigen; also called mAb DC8E8; source: mouse hybridoma (Balb/c spleen cells fused with NS0); hybridoma culture supernatant (indirect ELISA); purified antibody (protein G Sepharose)
- binding result [1]: binds
- binding result [2]: binds
- binding result [3]: binds
- fold affinity against full-length tau isoform 2N4R [4]: 7 fold
- koff [4]: 0.04 s⁻¹
- kon [4]: 2.9e+06 M⁻¹ s⁻¹
- koff [5]: 0.04 s⁻¹
- kon [5]: 440000 M⁻¹ s⁻¹
- fold affinity against full-length tau isoform 2N3R [6]: 25 fold
- koff [6]: 0.08 s⁻¹
- kon [6]: 150000 M⁻¹ s⁻¹
- koff [7]: 0.4 s⁻¹
- kon [7]: 28000 M⁻¹ s⁻¹

From article PMC4255369, “Identification of structural determinants on tau protein essential for its pathological function: novel therapeutic target for tau immunotherapy in Alzheimer’s disease” (Alzheimer's Research & Therapy, 2014)
